Data from publication PMC12288907 (2025).

Key:
[1] = target: T1, recombinant soluble trimeric H7 HA of A/Shanghai/02/2013 H7N9 (SH13 H7) (Influenza A virus A/Shanghai/02/2013 …); assay: ELISA
[2] = target: T1, recombinant soluble trimeric H7 HA of …; assay: BLI
[3] = target: A/Shanghai/02/2013 H7N9 (SH13) hemagglutinin HA1, monomeric (Influenza A virus A/Shanghai/02/2013 …, UniProt R4NN21 1-320, biotin (EZ-Link NHS-PEG4-Biotin, antigen:biotin 1:1) in the BLI only); assay: BLI

| Binder | EC50 [1] | Kd [2] | Kd [3] |
| --- | --- | --- | --- |
| recombinant H7-235 IgG1 (rH7-235 IgG1) (antibody, V domains shown) VH: QVQLVESGGGVVQPGESLRLSCAASGFAFRTYGMHWVRQAPGKGLEWVGVIWYDGSNKYYGDSVKGRFTISRDNSQNTLYLQMNSLRAEDTAVYYCARNGERWRVEDYYYGMDVWGQGTLVTVSS VL: EIVMTQSPLSLPVTPGEPASISCRSSQSLLHSNAHNYLDWYLQKPGQSPQLLIYLGSNRASGVPDRFSGSGSGTDFTLKISRVEAEDVGIYYCMQALQTPITFGQGTRLEIK | 0.03 nM | < 0.02 nM | < 0.02 nM |
| recombinant H7-235 fragment antigen-binding region (rH7-235 Fab) (Fab, V domains shown) VH: QVQLVESGGGVVQPGESLRLSCAASGFAFRTYGMHWVRQAPGKGLEWVGVIWYDGSNKYYGDSVKGRFTISRDNSQNTLYLQMNSLRAEDTAVYYCARNGERWRVEDYYYGMDVWGQGTLVTVSS VL: EIVMTQSPLSLPVTPGEPASISCRSSQSLLHSNAHNYLDWYLQKPGQSPQLLIYLGSNRASGVPDRFSGSGSGTDFTLKISRVEAEDVGIYYCMQALQTPITFGQGTRLEIK | 0.16 nM | 2.12 nM | – |
